The target of one experiment is human IgG1 (Homo sapiens, UniProt P01857). Kind of experiment: action of human and bacterial proteases on human IgG1 (Table 1). Type of experiment: biochemical. The note with it: for Major Product: None = no detectable cleavage in 24 hours; for Cleaved Site: human IgG1 heavy chain, EU numbering. As to the method:
Table 1 is a summary of the findings concerning the action of human proteases and two bacterial proteases on human IgG1. The term “Coagulation proteinases” refers to serum coagulation cascade proteins including; FXIIa, FIXa, FXa, thrombin and activated protein C; plasmin was plasminogen co-incubated with plasminogen activators; tPA, streptokinase and staphylokinase; “plasminogen activators alone” are without plasminogen; and the MMPs were recombinant proteinases obtained either as the active form or the pro-enzyme as detailed in the Materials; and “None” denotes no detectable cleavage in 24 hours. Except where indicated all enzymes where human. The residue designations are for the EU numbering system for the IgG1 antibody heavy chain where the 25 residues of SEQ ID NO: 1 corresponds to residues 219 through 243 of the complete mature heavy chain.

In experiment [1] the test system is platelets. Kind of experiment: circulating platelet counts in dogs. Type of experiment: in vivo, dog. The conditions noted are these: dose finding.
The subject of experiment [2] is platelets. Description: circulating platelet counts in dogs. Type of experiment: in vivo, dog. The note with it: for platelet clearance: dose finding. As to the method:
First, the c7E3 antibody antigen binding and platelet depletion parameters were established in dogs.
c7E3 IgG and c7E3 IgG single-cleaved by IdeS protease were also compared in vivo. Three groups of 5 animals received either saline control, intact c7E3 IgG (0.05 mg/kg) or c7E3 single-cleaved IgG (0.05 mg/kg). Platelet counts were monitored at baseline and at 2, 24, 48, 72 and 96 hours post-administration. Limiting the study to 5 days minimized the likelihood of anti-c7E3 immune responses that might confound the interpretation of the results. The results are presented in FIG. 3 as the mean platelet count±SD for each animal group at each time point. The extent of the error bars connotes the normal variability of platelet counts in different animals (for example, the predose counts for the 5 animals in the single-cleaved IgG treatment group were 175,000, 355,000, 305,000, 276,000 and 334,000 per μL, respectively).
To be consistent with the prior experiments, the variants of c7E3 were all administered at the 0.05 mg/kg dose. The unique aspect of the experiment (groups 6 and 7) involves the infusion of the first targeting mAb followed by the cleavage site specific mAb after a 10 minute delay. The cleavage site specific IdeS cleavage site mAb, 2095-2, was administered at 0.5 mg/kg; 10-fold higher than the dose used for all of the c7E3 variants. The higher dose was chosen in order to maximize the complexation of cleavage site specific mAb with platelet-bound c7E3 variants. All mAbs were delivered by slow infusion over a 20 minute period. Platelet counts were monitored over a 96-hour period. The platelet counts were normalized to the pre-dose count within each animal for clarity of presentation and to minimize the normal variability in numerical platelet counts in these small 3-animal groups.

[3] abbreviates: FIG. 12 study, groups of 3 animals, c7E3 variants 0.05 mg/kg, 2095-2 0.5 mg/kg.

Results on seven molecules are retold here after US20120269834A1, “IMMUNOGLOBULIN CLEAVAGE FRAGMENT VACCINE COMPOSITIONS” (priority 2010, published 2012).

human IgG1, sequence (P01857 1-330 isoform P01857-1, other chains not shown): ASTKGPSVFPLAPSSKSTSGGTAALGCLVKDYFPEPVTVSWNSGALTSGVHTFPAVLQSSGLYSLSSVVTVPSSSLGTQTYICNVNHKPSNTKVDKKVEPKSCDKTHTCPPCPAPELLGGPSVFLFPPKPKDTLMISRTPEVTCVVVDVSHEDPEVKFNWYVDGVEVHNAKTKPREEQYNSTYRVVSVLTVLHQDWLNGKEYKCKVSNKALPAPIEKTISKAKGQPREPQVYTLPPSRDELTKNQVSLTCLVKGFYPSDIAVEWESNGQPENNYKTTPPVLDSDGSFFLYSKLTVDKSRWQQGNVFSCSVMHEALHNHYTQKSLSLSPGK

B1: Plasmin: plasminogen co-incubated with plasminogen activators (protein, UniProt P00747 20-580; P00747 581-810, looked up)
Plasmin heavy chain A: EPLDDYVNTQGASLFSVTKKQLGAGSIEECAAKCEEDEEFTCRAFQYHSKEQQCVIMAENRKSSIIIRMRDVVLFEKKVYLSECKTGNGKNYRGTMSKTKNGITCQKWSSTSPHRPRFSPATHPSEGLEENYCRNPDNDPQGPWCYTTDPEKRYDYCDILECEEECMHCSGENYDGKISKTMSGLECQAWDSQSPHAHGYIPSKFPNKNLKKNYCRNPDRELRPWCFTTDPNKRWELCDIPRCTTPPPSSGPTYQCLKGTGENYRGNVAVTVSGHTCQHWSAQTPHTHNRTPENFPCKNLDENYCRNPDGKRAPWCHTTNSQVRWEYCKIPSCDSSPVSTEQLAPTAPPELTPVVQDCYHGDGQSYRGTSSTTTTGKKCQSWSSMTPHRHQKTPENYPNAGLTMNYCRNPDADKGPWCFTTDPSVRWEYCNLKKCSGTEASVVAPPPVVLLPDVETPSEEDCMFGNGKGYRGKRATTVTGTPCQDWAAQEPHRHSIFTPETNPRAGLEKNYCRNPDGDVGGPWCYTTNPRKLYDYCDVPQCAAPSFDCGKPQVEPKKCPGR
Plasmin light chain B: VVGGCVAHPHSWPWQVSLRTRFGMHFCGGTLISPEWVLTAAHCLEKSPRPSSYKVILGAHQEVNLEPHVQEIEVSRLFLEPTRKDIALLKLSSPAVITDKVIPACLPSPNYVVADRTECFITGWGETQGTFGAGLLKEAQLPVIENKVCNRYEFLNGRVQSTELCAGHLAGGTDSCQGDSGGPLVCFEKDKYILQGVTSWGLGCARPNKPGVYVRVSRFVTWIEGVMRNN
modifications: plasmin
For B1, in the experiment with human IgG1, the “Major Product” value is on record as “Fab + Fc” and the “Cleaved Site” value is given as “Lys^223-”.

B2: Cathepsin S: human cysteine endopeptidase (protein, UniProt P25774 115-331, looked up)
Cathepsin S: LPDSVDWREKGCVTEVKYQGSCGACWAFSAVGALEAQLKLKTGKLVSLSAQNLVDCSTEKYGNKGCNGGFMTTAFQYIIDNKGIDSDASYPYKAMDQKCQYDSKYRAATCSKYTELPYGREDVLKEAVANKGPVSVGVDARHPSFFLYRSGVYYEPSCTQNVNHGVLVVGYGDLNGKEYWLVKNSWGHNFGEEGYIRMARNKGNHCGIASFPSYPEI
In the case of B2, the “Major Product” value in the experiment with human IgG1 is on record as “None”.

B3: c7E3 IgG: anti-platelet integrin (αIIbβIIIa) murine-human IgG1 chimeric antibody (antibody, chains of the INN, looked up, V domains shown)
VH: EVQLQQSGTVLARPGASVKMSCEASGYTFTNYWMHWVKQRPGQGLEWIGAIYPGNSDTSYIQKFKGKAKLTAVTSTTSVYMELSSLTNEDSAVYYCTLYDGYYVFAYWGQGTLVTVSA
VL: EIVLTQSPVTLSVTPGDSVSLSCRASRDISNNLHWFQQTSHESPRLLIKYASQSMSGIPSRFSGSGSGTDFTLSINSVETEDFGMYFCQQTNSWPYTFGGGTKLEIK
modifications: IgG1
notes: anti-platelet integrin (αIIbβIIIa) murine-human IgG1 chimeric antibody
Consider B3, for which the platelet clearance entry is given as “ineffective” in the experiment on platelets [1] (0.01 mg/kg, 2 and 24 hours); “profound platelet clearance” with platelets [1] (0.2 mg/kg, at 2 hours, maintained at 24 hours); “little effect” in the experiment with platelets [2] (0.05 mg/kg, 2 hours); above 90% in the experiment on platelets [2] (0.05 mg/kg, 24 hours). Moreover, the platelet count recovery entry with platelets [2] (0.05 mg/kg, by 96 hours) was “approximately 50 % of the pre-dose level”. Further, the “time of platelet nadir” value is 24 h in the experiment with platelets [2] (0.05 mg/kg, groups of 5 animals) and 24 to 48 h in the experiment with platelets [2] (FIG. 12 study, 0.05 mg/kg). Moreover, the “effect on platelet numbers” value is on record as “substantial decrease” in the experiment on platelets [2] (0.05 mg/kg, groups of 5 animals, monitored to 96 hours) and “substantial platelet clearance” in the experiment with platelets [2] (setting [3]). Further, the “start of recovery of platelet numbers” value in the experiment with platelets [2] (FIG. 12 study, 0.05 mg/kg) is on record as “approximately 72 hours”. In addition, the “platelet clearance in pilot study” value in the experiment on platelets [2] (after 24 hours, recovery over 5 days) was “profound platelet clearance”. In addition, the αIIβ3 receptor blockade result in the experiment on platelets [2] (calculated for the 0.05 mg/kg dose) is “about 5%”. Further, the “time to platelet clearance” value with platelets [2] (doses >0.05 mg/kg) was at most 24 h.

B4: c7E3 F(ab′)2: F(ab′)2 of c7E3 prepared using the bacterial enzyme IdeS (antibody, chains of the INN, looked up, V domains shown)
VH: B3 VH
VL: B3 VL
modifications: F(ab')2 IdeS-generated
notes: F(ab′)2 of c7E3 prepared using the bacterial enzyme IdeS
B4: the “effect on platelet numbers” value in the experiment on platelets [2] (setting [3]) was “without effect”.

B5: Macrophage metalloelastase (MMP-12): recombinant human MMP (protein, UniProt P39900 106-470, looked up)
Macrophage metalloelastase: GPVWRKHYITYRINNYTPDMNREDVDYAIRKAFQVWSNVTPLKFSKINTGMADILVVFARGAHGDFHAFDGKGGILAHAFGPGSGIGGDAHFDEDEFWTTHSGGTNLFLTAVHEIGHSLGLGHSSDPKAVMFPTYKYVDINTFRLSADDIRGIQSLYGDPKENQRLPNPDNSEPALCDPNLSFDAVTTVGNKIFFFKDRFFWLKVSERPKTSVNLISSLWPTLPSGIEAAYEIEARNQVFLFKDDKYWLISNLRPEPNYPKSIHSFGFPNFVKKIDAAVFNPRFYRTYFFVDNQYWRYDERRQMMDPGYPKLITKNFQGIGPKIDAVFYSKNKYYYFFQGSNQFEYDFLLQRITKTLKSNSWFGC
Consider B5, for which, in the experiment with human IgG1, the “Major Product” value is “F(ab′)2 +” and the “Cleaved Site” value is “Pro^232-”.

B6: Chymase: human protease (protein, UniProt P23946 22-247, looked up)
Chymase: IIGGTECKPHSRPYMAYLEIVTSNGPSKFCGGFLIRRNFVLTAAHCAGRSITVTLGAHNITEEEDTWQKLEVIKQFRHPKYNTSTLHHDIMLLKLKEKASLTLAVGTLPFPSQFNFVPPGRMCRVAGWGRTGVLKPGSDTLQEVKLRLMDPQACSHFRDFDHNLQLCVGNPRKTKSAFKGDSGGPLLCAGVAQGIVSYGRSDAKPPAVFTRISHYRPWINQILQAN
Turning to B6, the “Major Product” value with human IgG1 was “None”.

B7: Proteinase 3: human protease (protein, UniProt P24158 28-248, looked up)
Myeloblastin: IVGGHEAQPHSRPYMASLQMRGNPGSHFCGGTLIHPSFVLTAAHCLRDIPQRLVNVVLGAHNVRTQEPTQQHFSVAQVFLNNYDAENKLNDVLLIQLSSPANLSASVATVQLPQQDQPVPHGTQCLAMGWGRVGAHDPPAQVLQELNVTVVTFFCRPHNICTFVPRRKAGICFGDSGGPLICDGIIQGIDSFVIWGCATRLFPDFFTRVALYVDWIRSTLR
Consider B7, for which, in the experiment with human IgG1, the “Major Product” value is on record as “None”.
